Test results reported in patent publication US20150148405A1, “Expression Construct for a Lin28-Resistant Let-7 Precursor MicroRNA” (THE JOHNS HOPKINS UNIVERSITY, priority 2012, published 2015).

Assays:
[1] = test system: hippocampal pyramidal neurons; assay: Live cell imaging of P-body numbers (GFP-Dcp1a); type: cell-based, mouse; details: BDNF-stimulated vs mock, GFP-Dcp1a live imaging, in presence of Actinomycin-D
Method: Dissociated hippocampal cultures were prepared from postnatal day 0 (P0) mice as previously described (Meffert et al., 2003). Knockdown was by lentiviral-mediated delivery of shRNA to cultures at multiplicity of infection of 5-10, 48 hr before imaging or 4-5 days for GW182. Cultures were preincubated 10-20 min and mock- or BDNF-stimulated (100 ng/mL BDNF) in the presence of Actinomycin-D (0.5 μg/mL), unless indicated otherwise.
Confocal images of hippocampal pyramidal neurons were acquired on either a Yokogawa spinning disk (Zeiss) at 37° C. (live cells), or a LSM5 Pascal system (fixed cells). Laser power and exposure time were adjusted to minimize photobleaching and avoid saturation. […]
Dissociated hippocampal cultures were prepared from postnatal day 0 (P0) mice as previously described (Meffert et al., 2003) and were maintained in Neurobasal A medium (Gibco, 10888) with B27 Supplement (Gibco 17504-44). […] For live cell imaging, confocal images of hippocampal pyramidal neurons (excitatory, determined by morphology) in 0.24-0.3 μm Z sections were acquired using a 40×, 1.3 NA, EC Plan Neofluoar (whole cells) or a 100×, 1.4 NA Plan Apochromat oil immersion objective (dendrites) on a Yokogawa spinning disk system (Cell Observer, Carl Zeiss) at 37° C. in Tyrodes buffer (in mM: 119 NaCl, 5 KCl, 2 CaCl2, 0.2 MgCl2, Glucose, 25 Hepes, 0.01 Glycine, pH 7.4). […]

[2] = test system: GW182; assay: Immunopurification of GW182: associated RNA, mRNAs and proteins; type: cell-based, mouse
Method: Proteins and mRNAs associated with P-body component GW182 were isolated through immunoprecipitation of GW182 by modification of previously published protocols (Keene et al., 2006; Moser et al., 2009). Primary cultures of mouse hippocampal neurons (DIV 14-15) were incubated in serum-reduced medium (0.5% B27 supplement) for 2 hours, followed by […] Actinomycin-D for […] and mock or BDNF-stimulation for 30˜60 min. Cell lysates were harvested in polysomal lysis buffer (100 mM KCl, 5 mM MgCl2, 10 mM HEPES pH 7.0, 0.5% NP-40) with protease inhibitor cocktail and freshly added 20 mM EDTA, 1 mM DTT, 100 U/mL RNase inhibitor (RNaseOut, Invitrogen) and 400 μM Vanadyl ribonucleoside complexes (SIGMA). Lysates were centrifuged and the supernatants pre-cleared by one-hour incubation with recombinant protein G beads pre-washed in NT2 buffer (50 mM Tris-HCl pH 7.4, 150 mM NaCl, 1 mM MgCl2, 0.05% NP-40). Antibody coating of protein G beads was carried out with antiserum against GW182 (18033, gift of M. Fritzler) or control isotype-specific serum in NT2 buffer plus protease inhibitor for 4 hours after blocking with NT2 buffer plus 5% BSA and 1 mg/mL heparin for 1 hour. For immunoprecipitation (IP), equal amounts of lysate protein (2-5 mg) was incubated with antibody-coated beads and tumbled for 4 hours at 4° C., followed by washing. RNAs were recovered from GW182 immunoprecipitates by Tri-Reagent as described below. Recovered RNAs were resuspended in nuclease-free water, measured for RNA concentration, and immediately reverse transcribed into cDNA using a combination of random decamers and oligo(dT) primers. RT-qPCR was carried out as described below. To examine proteins co-immunoprecipitated with GW182, the washed IP beads were incubated in sample buffer at 95° C. for 5 minutes and subjected to SDS-PAGE electrophoresis and immunoblotting.

B1: BDNF: brain-derived neurotrophic factor, a neurotrophin used to stimulate hippocampal neurons (protein, UniProt P23560 19-247, looked up)
Neurotrophic factor BDNF …: APMKEANIRGQGGLAYPGVRTHGTLESVNGPKAGSRGLTSLADTFEHVIEELLDEDQKVRPNEENNKDADLYTSRVMLSSQVPLEPPLLFLLEEYKNYLDAANMSMRVRRHSDPARRGELSVCDSISEWVTAADKKTAVDMSGGTVTVLEKVPVSKGQLKQYFYETKCNPMGYTKEGCRGIDKRHWNSQCRTTQSYVRALTMDSKKRIGWRFIRIDTSCVCTLTIKRGR
number of dendritic and somatic P-bodies [1]: rapid and robust increase in the number of both dendritic and somatic P-bodies | association of P-body components Ago2 and Dcp1a with GW182 ([2]; co-immunoprecipitation, BDNF 1 hour): increased the association | GW182-association of mRNAs whose translation is downregulated by BDNF (KCC2, Kv1.1) ([2]; control shRNA conditions): promoted the GW182-association | GW182-association of mRNAs whose translation is upregulated by BDNF (GluR1, CaMKIIu, Homer2) ([2]; control shRNA conditions): reduced the GW182-association
